These sequences were tested on Escherichia coli TOP10 (assay: shrunken log2 fold change of peptide-encoding DNA abundance (4.5 h post-induction vs induction); higher = less antimicrobial activity (less host growth inhibition)). Conditions: time post-induction: 4.5 h; library: site-saturation at positions 5, 18, 19, 20.
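Further: peptides expressed intracellularly from a pBAD plasmid library in pooled LB shake-flask culture, induced with 0.3% L-arabinose, DNA abundance read by NGS, three biological replicates, DESeq2 with apeglm shrinkage.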

Sequence	shrunken log2 fold change
RRIRHRPPRLPRPRPRPLYIPRP	-0.777
RRIRDRPPRLPRPRPRPSSFPRP	-0.178
RRIRWRPPRLPRPRPRPSRMPRP	0.0635
RRIRLRPPRLPRPRPRPRHWPRP	0.679
RRIRYRPPRLPRPRPRPPMCPRP	-0.0507
RRIRSRPPRLPRPRPRPPARPRP	0.876
RRIRERPPRLPRPRPRPHHLPRP	-0.143
RRIRARPPRLPRPRPRPAETPRP	0.398
RRIRIRPPRLPRPRPRPIRMPRP	-0.346
RRIRNRPPRLPRPRPRPKDCPRP	-0.0418
RRIRVRPPRLPRPRPRPDPYPRP	-0.1
RRIRLRPPRLPRPRPRPIICPRP	0.0147
RRIRQRPPRLPRPRPRPEMQPRP	0.0355
RRIRFRPPRLPRPRPRPYWGPRP	-0.186
RRIRQRPPRLPRPRPRPEWQPRP	0.00709
RRIRHRPPRLPRPRPRPCYDPRP	-0.00778
RRIRMRPPRLPRPRPRPPTMPRP	0.271
RRIRTRPPRLPRPRPRPDQTPRP	-0.0468
RRIRPRPPRLPRPRPRPLHTPRP	-0.128
RRIRNRPPRLPRPRPRPVQPPRP	0.0494
RRIRNRPPRLPRPRPRPKPRPRP	0.83
RRIRMRPPRLPRPRPRPSVEPRP	0.227
RRIRMRPPRLPRPRPRPSLNPRP	-0.0544

Sequence	shrunken log2 fold change
RRIRARPPRLPRPRPRPISKPRP	-0.401
RRIRCRPPRLPRPRPRPLLYPRP	-0.572
RRIRTRPPRLPRPRPRPHRWPRP	-0.254
RRIRMRPPRLPRPRPRPCSHPRP	-0.167
RRIRFRPPRLPRPRPRPLCDPRP	-0.196
RRIRIRPPRLPRPRPRPGICPRP	-0.0709
RRIRNRPPRLPRPRPRPQHLPRP	-0.517
RRIRIRPPRLPRPRPRPCHGPRP	-0.545
RRIRGRPPRLPRPRPRPWYNPRP	-0.358
RRIRLRPPRLPRPRPRPNCNPRP	-0.535
RRIRLRPPRLPRPRPRPCICPRP	-0.346
RRIRDRPPRLPRPRPRPDAMPRP	-0.107
RRIRKRPPRLPRPRPRPEWEPRP	0.271
RRIRDRPPRLPRPRPRPTSLPRP	-0.0226
RRIRHRPPRLPRPRPRPAEVPRP	-0.0107
RRIRMRPPRLPRPRPRPNYVPRP	-0.536
RRIRDRPPRLPRPRPRPPGYPRP	0.0954
RRIRVRPPRLPRPRPRPYQHPRP	-0.301
RRIRNRPPRLPRPRPRPSSQPRP	-0.208
RRIRVRPPRLPRPRPRPQWYPRP	-0.327
RRIRKRPPRLPRPRPRPVYKPRP	0.0665
RRIRYRPPRLPRPRPRPKTHPRP	-0.661
RRIRQRPPRLPRPRPRPVSEPRP	-0.202

Sequence	shrunken log2 fold change
RRIRTRPPRLPRPRPRPSRDPRP	-0.139
RRIRYRPPRLPRPRPRPYRMPRP	-0.725
RRIRERPPRLPRPRPRPIYPPRP	-0.0605
RRIRMRPPRLPRPRPRPIPAPRP	0.788
RRIRIRPPRLPRPRPRPTFIPRP	-0.677
RRIRIRPPRLPRPRPRPMDTPRP	0.0627
RRIRVRPPRLPRPRPRPVACPRP	0.167
RRIRCRPPRLPRPRPRPQPNPRP	0.0742
RRIRIRPPRLPRPRPRPEQWPRP	-0.0237
RRIRHRPPRLPRPRPRPLPHPRP	-0.162
RRIRNRPPRLPRPRPRPLRTPRP	0.717
RRIRIRPPRLPRPRPRPSDVPRP	-0.838
RRIRWRPPRLPRPRPRPSYIPRP	-0.715
RRIRMRPPRLPRPRPRPICMPRP	0.024
RRIRRRPPRLPRPRPRPKHRPRP	0.376
RRIRKRPPRLPRPRPRPRYVPRP	0.0611
RRIRIRPPRLPRPRPRPAHNPRP	-0.271
RRIRGRPPRLPRPRPRPHWHPRP	0.0418
RRIRERPPRLPRPRPRPGTKPRP	-0.0636
RRIRVRPPRLPRPRPRPFQKPRP	0.0406
RRIRERPPRLPRPRPRPRMHPRP	0.0795
RRIRSRPPRLPRPRPRPRCTPRP	0.0731
RRIRKRPPRLPRPRPRPWCLPRP	-0.503

Sequence	shrunken log2 fold change
RRIRRRPPRLPRPRPRPIPKPRP	0.0997
RRIRRRPPRLPRPRPRPNVVPRP	0.0745
RRIRSRPPRLPRPRPRPDLKPRP	-0.00372
RRIRWRPPRLPRPRPRPHPRPRP	0.451
RRIRMRPPRLPRPRPRPCQDPRP	0.227
RRIRCRPPRLPRPRPRPKCVPRP	-0.0957
RRIRRRPPRLPRPRPRPYWKPRP	0.0393
RRIRYRPPRLPRPRPRPVAHPRP	-0.419
RRIRSRPPRLPRPRPRPIHSPRP	-0.567
RRIRCRPPRLPRPRPRPWMSPRP	-0.824
RRIRMRPPRLPRPRPRPAYEPRP	0.0216
RRIRQRPPRLPRPRPRPQNEPRP	0.121
RRIRERPPRLPRPRPRPKNSPRP	-0.52
RRIRLRPPRLPRPRPRPAPGPRP	0.432
RRIRCRPPRLPRPRPRPGYAPRP	0.085
RRIRWRPPRLPRPRPRPCVLPRP	-0.0369
RRIRKRPPRLPRPRPRPVFMPRP	0.138
RRIRLRPPRLPRPRPRPHQSPRP	-0.0648
RRIRIRPPRLPRPRPRPECEPRP	-0.0311
RRIRMRPPRLPRPRPRPGNRPRP	0.0934
RRIRIRPPRLPRPRPRPLQTPRP	0.0711
RRIRQRPPRLPRPRPRPQEYPRP	0.0742

Reference: the supplement of paper PMC9112550, “Optimization of the antimicrobial peptide Bac7 by deep mutational scanning” (BMC Biology, 2022)
